Measurements from patent publication US20230021388A1 (VELOSBIO, published 2023).
Numbering of substitutions follows the chain as printed. In names and notes the source's numbering stands.

B1: Ab1 Fab variant H1 T32A + L2 T69R (Fab, V domains shown)
VH: QVQLQESGPGLVKPSQTLSLTCTVSGYAFAAYNIHWVRQAPGQGLEWMGSFDPYDGGSSYNQKFKDRLTISKDTSKNQVVLTMTNMDPVDTATYYCARGWYYFDYWGHGTLVTVSS
VL: DIVMTQTPLSLPVTPGEPASISCRASKSISKYLAWYQQKPGQAPRLLIYSGSRLQSGIPPRFSGSGYGTDFTLTINNIESEDAAYYFCQQHDESPYTFGEGTKVEIK
notes: Fab
B2: Ab1 Fab variant H1 T32A + L2 T69H (Fab, V domains shown)
VH: B1 VH
VL: B1 VL with R53H
notes: Fab
B3: Ab1 Fab variant H1 T32A + L2 T69H, L70K (Fab, V domains shown)
VH: B1 VH
VL: B1 VL with R53H, L54K
notes: Fab
B4: Ab1 Fab variant H1 T32A + L2 T69R, Q71T (Fab, V domains shown)
VH: B1 VH
VL: B1 VL with Q55T
notes: Fab
B5: Ab1 Fab variant H1 T32A + L2 L70K (Fab, V domains shown)
VH: B1 VH
VL: B1 VL with R53T, L54K
notes: Fab
B6: Ab1 Fab variant H1 T32A + L2 T69H, L70K, Q71T (Fab, V domains shown)
VH: B1 VH
VL: B1 VL with R53H, L54K, Q55T
notes: Fab
B7: Ab1 Fab variant H1 T32A + L2 L70K, Q71T (Fab, V domains shown)
VH: B1 VH
VL: B1 VL with R53T, L54K, Q55T
notes: Fab
B8: Ab1 Fab variant H1 T32E (Fab, V domains shown)
VH: B1 VH with A30E
VL: B1 VL with R53T
notes: Fab
B9: Ab1 Fab variant H3 W110F (Fab, V domains shown)
VH: B1 VH with A30T, W100F
VL: B1 VL with R53T
notes: Fab
B10: Ab1 Fab variant H3 W110M (Fab, V domains shown)
VH: B1 VH with A30T, W100M
VL: B1 VL with R53T
notes: Fab
B11: Ab1 Fab variant H3 W110Y (Fab, V domains shown)
VH: B1 VH with A30T, W100Y
VL: B1 VL with R53T
notes: Fab
B12: Ab1 Fab variant H3 W110H (Fab, V domains shown)
VH: B1 VH with A30T, W100H
VL: B1 VL with R53T
notes: Fab
B13: Ab1 Fab variant H1 T32A + L1 K29E + L2 T69R (Fab, V domains shown)
VH: B1 VH
VL: B1 VL with K27E
notes: Fab
B14: Ab1 Fab variant H1 T32A + L1 A25P, K29S + L2 T69R (Fab, V domains shown)
VH: B1 VH
VL: B1 VL with A25P, K27S
notes: Fab
B15: Ab1 Fab variant H1 T32A + L1 K29S (Fab, V domains shown)
VH: B1 VH
VL: B1 VL with K27S, R53T
notes: Fab
B16: Ab1 Fab variant H1 T32A + L1 K29E (Fab, V domains shown)
VH: B1 VH
VL: B1 VL with K27E, R53T
notes: Fab
B17: Ab1 Fab variant H1 T32A + L1 K29S + L2 T69R (Fab, V domains shown)
VH: B1 VH
VL: B1 VL with K27S
notes: Fab
B18: Ab1 Fab variant H1 T32A + L1 A25P (Fab, V domains shown)
VH: B1 VH
VL: B1 VL with A25P, R53T
notes: Fab
B19: Ab1 Fab variant H1 T32A + L1 A25P + L2 T69R (Fab, V domains shown)
VH: B1 VH
VL: B1 VL with A25P
notes: Fab
B20: Ab1 Fab variant H1 T32A + L1 A25P + L2 L70K (Fab, V domains shown)
VH: B1 VH
VL: B1 VL with A25P, R53T, L54K
notes: Fab
B21: Ab1 Fab variant H1 T32A + L1 A25P + L2 Q71T (Fab, V domains shown)
VH: B1 VH
VL: B1 VL with A25P, R53T, Q55T
notes: Fab
B22: Ab1 Fab variant H1 T32A + L1 A25P + L2 T69H (Fab, V domains shown)
VH: B1 VH
VL: B1 VL with A25P, R53H
notes: Fab
B23: Ab1 Fab variant H1 T32A + H2 N71H (Fab, V domains shown)
VH: B1 VH with N61H
VL: B1 VL with R53T
notes: Fab
B24: Ab1 Fab variant H1 T32A + H2 S69V (Fab, V domains shown)
VH: B1 VH with S59V
VL: B1 VL with R53T
notes: Fab

Target: T1, recombinant human ROR1 extracellular domain (human, UniProt Q01973 30-406)
T1 construct: biotinylated for the filter lifts; also called huROR1-ECD; human ROR1-ECD
Test: ELISA with prolonged wash, soluble Fab on coated huROR1-ECD
Description: (§1) The previously described filter lift assay provides a visual, qualitative assessment of antigen binding (Example 1). In order to assess the ROR1 binding activity of Ab1 Fab in a more quantitative fashion, an ELISA assay was developed. A 96-well Costar-3366 plate was coated with 50 μL/well of 1 μg/mL human ROR1-ECD (ACROBiosystems, cat. #RO1-H522y) in PBS overnight at 4° C. The plate was rinsed once with PBS-T and blocked with 100 μL/well of 5% M-P for 1 h at 25° C. Fab samples were serially diluted 3-fold using 5% M-P and 50 μL/well was incubated for 1 h at 25° C. The plate was washed three times with PBS-T and 50 μL/well anti-human kappa, and HRP conjugate (Southern Biotech, cat. #2060-05) diluted 10,000-fold in 5% M-P was added for 1 h at 25° C. In certain assays (extended wash format), the plate was placed in large volumes (up to 1 L) of PBS-T and incubated, with mixing, for 2-5 h prior to the addition of anti-human kappa, HRP conjugate. The plate was washed three times with PBS-T, and developed with 50 μL/well 1-Step Ultra TMB-ELISA (Thermo Scientific, cat. #34028). The reaction was terminated by the addition of 2 N H2504 and the A450 was determined using a Spectramax plate reader.
(§2) Subsequently, the libraries were screened by capture lift to identify the strongest binding variants. The identity of the variants was determined by DNA sequencing and the relative affinities were characterized using an ELISA (described in Example 2) modified to enable further discrimination between the highest affinity variants. Specifically, following the initial incubation with soluble Fab, the plates were washed for a prolonged time (>1 h) in large volumes of PBS-T. The plates were then developed as described in Example 2.

T1 sequence (Q01973 30-406 limits assumed): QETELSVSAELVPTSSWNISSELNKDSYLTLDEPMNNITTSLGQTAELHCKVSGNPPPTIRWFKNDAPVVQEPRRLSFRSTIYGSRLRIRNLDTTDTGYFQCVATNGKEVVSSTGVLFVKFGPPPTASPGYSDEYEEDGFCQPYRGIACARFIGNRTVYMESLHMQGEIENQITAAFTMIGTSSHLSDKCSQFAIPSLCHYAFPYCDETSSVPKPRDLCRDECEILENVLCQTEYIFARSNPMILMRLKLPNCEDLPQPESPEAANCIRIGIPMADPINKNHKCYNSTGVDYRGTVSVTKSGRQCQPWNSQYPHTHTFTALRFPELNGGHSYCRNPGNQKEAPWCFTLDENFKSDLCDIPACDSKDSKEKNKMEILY

Kd | Binder
1.1 nM | B1
2.3 nM | B2
1.8 nM | B3
1.1 nM | B4
1.6 nM | B5
1.4 nM | B6
1.6 nM | B7

Target: T1, recombinant human ROR1 extracellular …
Test: ELISA, soluble Fab on coated huROR1-ECD

Kd | Binder
3.3 nM | B8

Target: T1, recombinant human ROR1 extracellular …
Test: ELISA, soluble Fab on coated huROR1-ECD
Remark: another data set of the same source
Description: as §1

Kd | Binder
96 nM | B9
160 nM | B10
68 nM | B11
110 nM | B12

Target: T1, recombinant human ROR1 extracellular …
Test: ELISA with prolonged wash, soluble Fab on coated huROR1-ECD
Remark: another data set of the same source
Description: as §1, §2

Kd | Binder
2.3 nM | B1
4.8 nM | B13
3.9 nM | B14
2.1 nM | B15
3.3 nM | B16
2.1 nM | B17
1.8 nM | B18
2.1 nM | B19

Target: T1, recombinant human ROR1 extracellular …
Test: as above
Remark: another data set of the same source
Description: as §1, §2

Kd | Binder
2.1 nM | B20
2.9 nM | B21
2.3 nM | B22
1.8 nM | B18
2.4 nM | B19

Target: T2, human ROR1 on live cells (human, UniProt Q01973 30-937)
T2 construct: ROR1-transfected MEC cells (~56,000 copies/cell) or JeKo-1 cells (~13,000 copies/cell); the cell line is named under assay; also called ROR1-transfected MEC cells; JeKo-1 cells
Test: flow cytometry on live JeKo-1 cells, Fab detected with anti-HA-PE
Description: ROR1 binding was quantitated using flow cytometry and 2.5E5 ROR1-transfected MEC cells or JeKo-1 cells for each concentration of Fab variant. The cells were placed in 50 μL of PBS with 2% FBS. Next, the cells were diluted with an equal volume of 2× stock of the test Fab variant and the cells and antibody were co-incubated on ice for 20 min. The cells were then washed 3 times with 300 μL of FACS buffer and were resuspended in 100 μL of a 70-fold dilution of anti-HA.11-PE conjugate, clone 16B12 (BioLegend, cat. #901517) and incubated on ice with reduced light for 20 min. Subsequently, the cells were washed 3 times with 300 μL of FACS buffer and fixed with 2% paraformaldehyde for 10 min at 25° C. The cells then were washed 2 times with 300 μL of FACS buffer and analyzed on a Miltenyi MACSQuant Analyzer.

T2 sequence (Q01973 30-937 limits assumed): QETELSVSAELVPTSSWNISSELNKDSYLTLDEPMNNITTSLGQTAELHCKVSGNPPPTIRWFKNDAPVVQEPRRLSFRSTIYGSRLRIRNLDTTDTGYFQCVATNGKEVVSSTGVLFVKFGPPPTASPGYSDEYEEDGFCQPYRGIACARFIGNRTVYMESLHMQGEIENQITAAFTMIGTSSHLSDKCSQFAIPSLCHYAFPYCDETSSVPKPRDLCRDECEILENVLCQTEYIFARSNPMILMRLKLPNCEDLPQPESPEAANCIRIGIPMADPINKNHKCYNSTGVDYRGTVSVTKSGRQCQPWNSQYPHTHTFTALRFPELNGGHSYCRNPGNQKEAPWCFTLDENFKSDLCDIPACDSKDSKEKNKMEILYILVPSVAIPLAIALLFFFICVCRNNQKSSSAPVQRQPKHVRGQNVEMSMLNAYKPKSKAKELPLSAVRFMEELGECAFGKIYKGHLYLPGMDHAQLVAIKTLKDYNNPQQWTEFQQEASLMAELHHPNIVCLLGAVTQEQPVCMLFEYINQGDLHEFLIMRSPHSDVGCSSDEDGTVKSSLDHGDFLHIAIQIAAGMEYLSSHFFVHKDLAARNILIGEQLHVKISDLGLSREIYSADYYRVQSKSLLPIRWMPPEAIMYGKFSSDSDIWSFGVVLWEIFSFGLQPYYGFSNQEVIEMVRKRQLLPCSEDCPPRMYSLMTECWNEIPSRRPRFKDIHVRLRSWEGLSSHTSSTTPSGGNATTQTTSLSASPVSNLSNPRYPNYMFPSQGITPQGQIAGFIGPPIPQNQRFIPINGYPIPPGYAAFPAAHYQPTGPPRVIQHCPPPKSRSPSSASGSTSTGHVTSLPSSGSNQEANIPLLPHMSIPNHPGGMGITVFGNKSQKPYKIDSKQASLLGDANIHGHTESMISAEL

EC50 (read off the curve) | Binder
~2 nM | B1
~2 nM | B15
~1 nM | B20
~1 nM | B17
~1 nM | B4
~1 nM | B19

Target: T1, recombinant human ROR1 extracellular …
Test: ELISA with prolonged wash, soluble Fab on coated huROR1-ECD
Remark: another data set of the same source
Description: as §1, §2

Kd | Binder
2.1 nM | B23
3.3 nM | B24

Target: T1, recombinant human ROR1 extracellular …
Test: ELISA, soluble Fab on coated huROR1-ECD
Remark: another data set of the same source

fold increase of binding against Ab1 | fold reduction of binding against Ab1 | Binder
~2 fold | – | B8
– | 10 to 23 fold | B10
– | 10 to 23 fold | B11
